Assay results published in article PMC3979393 (2014).
Where a chain is given by its changes, count along the chain named. Names and notes keep the numbering of the source. One block for each binder: values may come before it.

Key:
[1] = target: Rat tail collagen type I (rat, UniProt P02454 152-1207; P02466 86-1125); experiment: ELISA
[2] = BS3 cross-linking of lysates, IP, anti-DDR1 blot; details: glycan lost; control: wild-type DDR1b, no collagen
[3] = cell-surface biotinylation, avidin pulldown, anti-Myc blot; details: glycan lost; control: wild-type DDR1b, no collagen
[4] = anti-Myc blot of surface, intracellular and lysate fractions; details: glycan lost; control: wild-type DDR1b
[5] = reversible biotinylation endocytosis assay, COS1; details: glycan lost; control: wild-type DDR1b

Sequence of Rat tail collagen type I (P02454 152-1207, chain 1 of 2): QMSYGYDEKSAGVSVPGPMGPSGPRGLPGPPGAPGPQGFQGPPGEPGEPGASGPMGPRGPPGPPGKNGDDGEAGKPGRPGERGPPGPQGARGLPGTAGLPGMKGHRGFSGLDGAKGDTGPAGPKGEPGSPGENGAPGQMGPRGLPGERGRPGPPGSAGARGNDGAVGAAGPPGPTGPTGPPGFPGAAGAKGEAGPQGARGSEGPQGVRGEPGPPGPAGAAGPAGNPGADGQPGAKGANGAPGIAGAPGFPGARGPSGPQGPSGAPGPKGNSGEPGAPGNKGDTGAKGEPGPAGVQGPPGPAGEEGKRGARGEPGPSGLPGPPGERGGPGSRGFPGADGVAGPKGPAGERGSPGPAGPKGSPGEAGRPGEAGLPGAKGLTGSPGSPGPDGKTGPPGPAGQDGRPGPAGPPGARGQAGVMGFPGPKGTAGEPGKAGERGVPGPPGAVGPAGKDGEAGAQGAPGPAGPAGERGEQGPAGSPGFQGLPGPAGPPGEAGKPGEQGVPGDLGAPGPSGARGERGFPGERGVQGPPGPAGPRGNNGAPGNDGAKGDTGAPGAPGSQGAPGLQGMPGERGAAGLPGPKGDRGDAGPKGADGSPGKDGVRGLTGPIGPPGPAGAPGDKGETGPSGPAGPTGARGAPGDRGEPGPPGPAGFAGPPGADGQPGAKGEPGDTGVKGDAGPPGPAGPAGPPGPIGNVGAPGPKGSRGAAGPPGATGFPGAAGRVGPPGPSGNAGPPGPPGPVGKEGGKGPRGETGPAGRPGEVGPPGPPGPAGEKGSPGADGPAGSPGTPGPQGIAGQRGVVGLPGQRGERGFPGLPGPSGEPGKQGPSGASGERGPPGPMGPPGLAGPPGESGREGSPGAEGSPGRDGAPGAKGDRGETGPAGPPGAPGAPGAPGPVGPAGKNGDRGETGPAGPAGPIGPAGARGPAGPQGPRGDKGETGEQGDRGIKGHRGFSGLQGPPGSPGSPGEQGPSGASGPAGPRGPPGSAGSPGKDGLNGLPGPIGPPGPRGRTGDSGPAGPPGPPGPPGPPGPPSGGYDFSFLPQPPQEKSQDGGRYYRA
Sequence of Rat tail collagen type I (P02466 86-1125, chain 2 of 2): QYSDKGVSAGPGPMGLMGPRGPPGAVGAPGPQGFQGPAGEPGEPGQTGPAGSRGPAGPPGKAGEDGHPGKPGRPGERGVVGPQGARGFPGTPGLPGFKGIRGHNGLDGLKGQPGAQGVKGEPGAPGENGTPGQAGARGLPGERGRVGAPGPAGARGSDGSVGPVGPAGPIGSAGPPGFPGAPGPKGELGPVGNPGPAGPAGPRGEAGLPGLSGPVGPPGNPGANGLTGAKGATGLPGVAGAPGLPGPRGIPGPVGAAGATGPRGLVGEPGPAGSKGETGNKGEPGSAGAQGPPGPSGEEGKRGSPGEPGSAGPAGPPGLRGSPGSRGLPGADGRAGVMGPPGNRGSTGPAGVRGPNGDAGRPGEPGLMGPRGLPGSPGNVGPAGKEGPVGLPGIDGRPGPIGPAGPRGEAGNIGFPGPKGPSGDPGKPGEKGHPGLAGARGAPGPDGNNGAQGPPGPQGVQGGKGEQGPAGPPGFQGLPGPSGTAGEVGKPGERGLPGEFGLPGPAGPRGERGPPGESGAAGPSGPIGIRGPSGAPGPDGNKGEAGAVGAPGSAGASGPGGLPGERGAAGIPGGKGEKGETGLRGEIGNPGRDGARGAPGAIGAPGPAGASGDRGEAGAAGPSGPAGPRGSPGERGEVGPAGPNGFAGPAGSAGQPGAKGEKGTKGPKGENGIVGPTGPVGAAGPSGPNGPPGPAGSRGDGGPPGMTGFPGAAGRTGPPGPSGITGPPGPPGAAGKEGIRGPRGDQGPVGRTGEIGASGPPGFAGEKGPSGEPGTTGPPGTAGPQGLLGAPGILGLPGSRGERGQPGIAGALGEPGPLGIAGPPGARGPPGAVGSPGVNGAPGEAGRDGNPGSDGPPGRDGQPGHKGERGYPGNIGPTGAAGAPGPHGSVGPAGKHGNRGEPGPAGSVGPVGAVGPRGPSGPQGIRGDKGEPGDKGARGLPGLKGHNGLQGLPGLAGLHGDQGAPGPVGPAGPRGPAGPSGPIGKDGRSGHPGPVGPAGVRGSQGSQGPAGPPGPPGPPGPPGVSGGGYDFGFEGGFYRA

Kd [1]: 4.75 nM
B1: DDR1b ectodomain (ECD) harboring an IgG2 Fc fragment at the C-terminal end, N211Q (Fc fusion)
chain: DADMKGHFDPAKCRYALGMQDRTIPDSDISASSSWSDSTAARHSRLESSDGDGAWCPAGSVFPKEEEYLQVDLQRLHLVALVGTQGRHAGGLGKEFSRSYRLRYSRDGRRWMGWKDRWGQEVISGNEDPEGVVLKDLGPPMVARLVRFYPRADRVMSVCLRVELYGCLWRDGLLSYTAPVGQTMYLSEAVYLQDSTYDGHTVGGLQYGGLGQLADGVVGLDDFRKSQELRVWPGYDYVGWSNHSFSSGYVEMEFEFDRLRAFQAMQVHCNNMHTLGARLPGGVECRFRRGPAMAWEGEPMRHNLGGNLGDPRARAVSVPLGGRVARFLQCRFLFAGPWLLFSEISFISDVVNNSSPALGGTFPPAPWWPPGPPPTNFSSLELEPRGQQPVAKAEGSPT

Kd [1]: 3.33 nM
B2: DDR1b ectodomain (ECD) harboring an IgG2 Fc fragment at the C-terminal end, wild type (Fc fusion)
chain: B1 chain with Q193N

B3: Discoidin domain receptor 1 (DDR1b): N211Q (protein)
parent chain: MGPEALSSLLLLLLVASGDADMKGHFDPAKCRYALGMQDRTIPDSDISASSSWSDSTAARHSRLESSDGDGAWCPAGSVFPKEEEYLQVDLQRLHLVALVGTQGRHAGGLGKEFSRSYRLRYSRDGRRWMGWKDRWGQEVISGNEDPEGVVLKDLGPPMVARLVRFYPRADRVMSVCLRVELYGCLWRDGLLSYTAPVGQTMYLSEAVYLNDSTYDGHTVGGLQYGGLGQLADGVVGLDDFRKSQELRVWPGYDYVGWSNHSFSSGYVEMEFEFDRLRAFQAMQVHCNNMHTLGARLPGGVECRFRRGPAMAWEGEPMRHNLGGNLGDPRARAVSVPLGGRVARFLQCRFLFAGPWLLFSEISFISDVVNNSSPALGGTFPPAPWWPPGPPPTNFSSLELEPRGQQPVAKAEGSPTAILIGCLVAIILLLLLIIALMLWRLHWRRLLSKAERRVLEEELTVHLSVPGDTILINNRPGPREPPPYQEPRPRGNPPHSAPCVPNGSALLLSNPAYRLLLATYARPPRGPGPPTPAWAKPTNTQAYSGDYMEPEKPGAPLLPPPPQNSVPHYAEADIVTLQGVTGGNTYAVPALPPGAVGDGPPRVDFPRSRLRFKEKLGEGQFGEVHLCEVDSPQDLVSLDFPLNVRKGHPLLVAVKILRPDATKNARNDFLKEVKIMSRLKDPNIIRLLGVCVQDDPLCMITDYMENGDLNQFLSAHQLEDKAAEGAPGDGQAAQGPTISYPMLLHVAAQIASGMRYLATLNFVHRDLATRNCLVGENFTIKIADFGMSRNLYAGDYYRVQGRAVLPIRWMAWECILMGKFTTASDVWAFGVTLWEVLMLCRAQPFGQLTDEQVIENAGEFFRDQGRQVYLSRPPACPQGLYELMLRCWSRESEQRPPFSQLHRFLAEDALNTV
oligomerisation [2]: increases
localisation_or_trafficking [3]: no change
expression_or_secretion [4]: no change
localisation_or_trafficking [5]: decreases
